Five molecules from patent US12590158 (XIYUAN ANJIAN MEDICINE SHANGHAI, dated 2026) can be followed below.

Experiment [1] concerns the target T1, human TrkB expressed on CHO cells (TrkB/CHO, ThermoFisher K1491) (human, UniProt Q16620 32-822).
T1 construct: whole, on cells
Kind of experiment: flow cytometry on TrkB/CHO cells, FITC goat anti-human Fc. On the procedure:
(§1) CHO-K1 was used as a negative control. The binding of the humanized antibodies to the four cell lines was detected by flow cytometry.
(§2) The cells were cultured according to the manufacturer's instruction. The cells were harvested in the logarithmic growth phase, re-suspended in flow buffer (PBS+2% FBS, pH 7.4), and added into 96-well plate, 10^5 cells per well (50 µl). 50 µl of 100 µg/mL humanized anti-TrkA antibody was added, incubated at room temperature for 60 min, and centrifuged at 1200 rpm. The supernatant was discarded and the cells were washed 3 times. FITC-labeled goat anti-human Fc antibody (Abeam, ab97224) was diluted to 5 µg/mL with flow buffer and used to re-suspend the cells, incubated at room temperature for 30 min in the dark, centrifuged, and the supernatant was discarded. After washing 3 times, the cells were re-suspended with 7AAD solution (Biolegend, 420403), incubated for 10 min at room temperature, and the binding of the antibody was detected with a flow cytometer (BioRad, ZE5).
A general note: Flow cytometry measures light scatter and fluorescence of single cells or particles in a stream.

Experiment [2] addresses T2, human TrkC expressed on CHO cells (TrkC/CHO, ThermoFisher K1515) (human, UniProt Q16288 32-839).
T2 construct: whole, on cells
Kind of experiment: flow cytometry on TrkC/CHO cells, FITC goat anti-human Fc. The procedure:
as §1, §2

Experiment [3] deals with T3, TrkA extracellular region (33-417) protein comprising human Fc (ACROBiosystems TRA-H5259) (human, UniProt P04629 33-417).
T3 construct: range 33-417; Bought fusion protein; also called human TrkA (33-417); human TrkA extracellular region
Kind of experiment: ELISA, coated human TrkA (33-417)-hFc, anti-mouse Fc-HRP. The procedure: (§3) Example 2: ELISA Detection of the Binding of Murine Anti-TrkA Antibodies to Human TrkA The binding abilities of the anti-TrkA antibodies were detected by using a TrkA extracellular region (33-417) protein comprising human Fc (Beijing ACROBiosystems Co., Ltd., TRA-H5259). Each well of a 96-well microtiter plate was coated with 50 ng of human TrkA, washed and blocked, and then added with serially diluted antibodies, and incubated at room temperature for 1 hour. After washing three times, horseradish peroxidase-conjugated goat anti-mouse Fc antibody (Biolegend, 405306) was added and incubated at room temperature for 1 hour. After washing three time, tetramethylbenzidine (TMB, Biolegend, 421101) was added for color development. 1M HCl was used to terminate the color development, and the absorbance values were read at 450 nm with a microplate reader.
A general note: An ELISA detects its analyte on a solid surface through an enzyme-linked reagent.

The target of experiment [4] is fusion protein (fused to human Fc) containing only the portion of human TrkA extracellular region that binds NGF (TrkA 192-402) (ACROBiosystems TRA-H5258) (human) (UniProt P04629). Kind of experiment: ELISA, coated human TrkA (192-402)-hFc.
Experiment [5] addresses T4, human TrkC extracellular region protein (Yiqiao Shenzhou 10048-H03H) (human, UniProt Q16288 32-429).
T4 construct: extracellular domain; Bought protein
Kind of experiment: ELISA, plate coated with human TrkC extracellular region protein, HRP goat anti-mouse Fc detection. The procedure: as §3
(§4) Example 7: Detection of the Binding of Murine Anti-TrkA Antibodies to TrkA Proteins of the Same Family Each well of a 96-well microtiter plate was coated with 50 ng of human TrkA extracellular region protein, human TrkB extracellular region protein (Beijing Yiqiao Shenzhou Technology Co., Ltd., 10047-H03H), human TrkC extracellular region protein (Beijing Yiqiao Shenzhou Technology Co., Ltd., 10048-H03H). The bindings of the anti-TrkA antibodies to human TrkA and the two proteins of the same family were detected according to the method described in Example 2.

Experiment [6] addresses T5, full-length human TrkA expressed on cells (human, UniProt P04629 33-796). Kind of experiment: cell-based or functional assay.
The target of experiment [7] is T6, rat TrkA extracellular region fusion protein (fused to human Fc) (Yiqiao Shenzhou 80243-R03H) (rat, UniProt P35739 33-418).
T6 construct: extracellular domain; Bought fusion protein
Kind of experiment: ELISA, plate coated with rat TrkA extracellular region-hFc, HRP goat anti-mouse Fc detection. On the procedure:
as §3
(§5) In addition, the species cross-reactivities of anti-TrkA antibodies were detected with monkey TrkA (Hangzhou Haoyang Biotechnology Co., Ltd., HSP037-05), rat TrkA (Beijing Yiqiao Shenzhou Technology Co., Ltd., 80243-R03H), mouse TrkA (Beijing Yiqiao Shenzhou Technology Co., Ltd., 51103-M02H) extracellular region fusion protein (fused to human Fc).

The target of experiment [8] is T7, human TrkB extracellular region protein (Yiqiao Shenzhou 10047-H03H) (human, UniProt Q16620 32-430).
T7 construct: extracellular domain; Bought protein
Description: ELISA, plate coated with human TrkB extracellular region protein, HRP goat anti-mouse Fc detection. The procedure: as §3, §4

In experiment [9] the target is T3, TrkA extracellular region (33-417) …. Description: competition ELISA, coated TrkA (33-417)-hFc, antibody titrated, competitor biotin-labeled human NGF. The procedure:
Each well of a 96-well microtiter plate was coated with 50 ng of TrkA extracellular region (33-417) protein fused to human Fc, washed three times and blocked with 3% BSA for 1 hour. […] Each well was added with 100 μl and incubated at room temperature for 30 minutes. […] Streptavidin-labeled horseradish peroxidase (Streptavidin-HRP, Biolegend, 405210) was added and incubated for 0.5 hours. After washing three times, TMB was added to the plate, and the absorbance at 450 nm was read by a microplate reader after the color development was terminated.

Experiment [10] shares this target. Description: BLI (ForteBio Octet Red96), TrkA (33-417)-hFc captured on anti-human Fc sensor, antibody in solution. The text has this:
Example 3: Affinity Assay of Murine Anti-TrkA Antibodies Binding to Human TrkA The affinities of the antibodies were detected with Biomolecular Interaction Detection Platform (ForteBio Octet Red96 (PALL)).
Human TrkA extracellular region (33-417) protein containing human Fc tag was fixed onto a chip by using an anti-human Fc capture sensor (Fortebio, 18-5088), and then bound to gradient concentrations of anti-TrkA antibody.

Experiment [11] deals with T5, full-length human TrkA expressed on …. Kind of experiment: cell-based or functional assay. The source holds these as a separate data set.
Experiment [12] has the same target. Kind of experiment: cell-based or functional assay. The source holds these as a separate data set.
The target of experiment [13] is T8, mouse TrkA extracellular region fusion protein (fused to human Fc) (Yiqiao Shenzhou 51103-M02H) (mouse, UniProt Q3UFB7 34-420).
T8 construct: extracellular domain; Bought fusion protein
Kind of experiment: ELISA, plate coated with mouse TrkA extracellular region-hFc, HRP goat anti-mouse Fc detection. The procedure: as §3, §5

T7 sequence (Q16620 32-430): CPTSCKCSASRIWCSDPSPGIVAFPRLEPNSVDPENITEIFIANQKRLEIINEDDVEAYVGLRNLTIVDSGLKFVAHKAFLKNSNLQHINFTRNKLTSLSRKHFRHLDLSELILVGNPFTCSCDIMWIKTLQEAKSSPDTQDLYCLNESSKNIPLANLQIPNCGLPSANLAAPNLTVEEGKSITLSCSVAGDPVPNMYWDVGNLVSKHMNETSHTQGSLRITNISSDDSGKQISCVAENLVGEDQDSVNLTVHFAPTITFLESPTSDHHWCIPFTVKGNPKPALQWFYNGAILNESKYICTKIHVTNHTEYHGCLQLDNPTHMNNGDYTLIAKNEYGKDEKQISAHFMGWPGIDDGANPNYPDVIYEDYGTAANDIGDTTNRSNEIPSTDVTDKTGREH
T5 sequence (P04629 33-796): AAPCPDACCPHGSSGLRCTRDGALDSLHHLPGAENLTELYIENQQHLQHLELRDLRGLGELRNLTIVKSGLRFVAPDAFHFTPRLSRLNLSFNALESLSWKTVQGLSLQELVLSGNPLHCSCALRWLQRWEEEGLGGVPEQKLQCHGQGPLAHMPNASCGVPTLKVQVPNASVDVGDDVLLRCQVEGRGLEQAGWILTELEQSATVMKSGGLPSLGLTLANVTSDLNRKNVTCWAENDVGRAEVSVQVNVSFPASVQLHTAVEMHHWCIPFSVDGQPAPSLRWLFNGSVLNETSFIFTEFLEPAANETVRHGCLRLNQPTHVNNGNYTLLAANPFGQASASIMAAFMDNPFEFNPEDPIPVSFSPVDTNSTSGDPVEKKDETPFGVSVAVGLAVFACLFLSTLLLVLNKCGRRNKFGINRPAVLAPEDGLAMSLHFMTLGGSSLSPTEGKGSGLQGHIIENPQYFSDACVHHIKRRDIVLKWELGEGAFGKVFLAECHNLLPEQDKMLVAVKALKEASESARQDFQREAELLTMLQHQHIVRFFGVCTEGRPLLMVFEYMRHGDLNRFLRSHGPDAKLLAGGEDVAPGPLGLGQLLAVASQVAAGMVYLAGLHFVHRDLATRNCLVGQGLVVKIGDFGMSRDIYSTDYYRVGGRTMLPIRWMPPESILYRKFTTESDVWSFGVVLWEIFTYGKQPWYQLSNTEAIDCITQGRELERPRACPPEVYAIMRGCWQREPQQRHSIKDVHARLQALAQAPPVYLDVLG
T6 sequence (P35739 33-418, stated change not applied): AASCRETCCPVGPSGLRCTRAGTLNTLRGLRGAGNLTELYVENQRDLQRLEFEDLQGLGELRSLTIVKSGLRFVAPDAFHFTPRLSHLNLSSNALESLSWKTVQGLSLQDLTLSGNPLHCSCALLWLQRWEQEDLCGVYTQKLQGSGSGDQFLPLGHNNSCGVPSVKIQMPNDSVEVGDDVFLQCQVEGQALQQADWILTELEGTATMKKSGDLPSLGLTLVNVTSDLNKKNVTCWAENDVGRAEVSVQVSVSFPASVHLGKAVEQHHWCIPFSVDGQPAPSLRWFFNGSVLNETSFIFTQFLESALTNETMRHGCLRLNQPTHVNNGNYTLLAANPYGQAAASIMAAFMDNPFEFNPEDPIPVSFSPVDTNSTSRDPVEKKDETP
Sequence of fusion protein (fused to human Fc) containing only the portion of human TrkA extracellular region that binds NGF (TrkA 192-402) (ACROBiosystems TRA-H5258) (human) (P04629 192-402 limits assumed, form in doubt): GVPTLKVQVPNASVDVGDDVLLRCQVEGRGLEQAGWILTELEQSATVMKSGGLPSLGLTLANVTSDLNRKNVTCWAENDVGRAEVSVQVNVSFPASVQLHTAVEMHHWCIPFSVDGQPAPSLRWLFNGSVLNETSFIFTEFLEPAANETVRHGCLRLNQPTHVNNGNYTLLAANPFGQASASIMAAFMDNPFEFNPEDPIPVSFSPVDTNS
T8 sequence (Q3UFB7 34-420, stated change not applied): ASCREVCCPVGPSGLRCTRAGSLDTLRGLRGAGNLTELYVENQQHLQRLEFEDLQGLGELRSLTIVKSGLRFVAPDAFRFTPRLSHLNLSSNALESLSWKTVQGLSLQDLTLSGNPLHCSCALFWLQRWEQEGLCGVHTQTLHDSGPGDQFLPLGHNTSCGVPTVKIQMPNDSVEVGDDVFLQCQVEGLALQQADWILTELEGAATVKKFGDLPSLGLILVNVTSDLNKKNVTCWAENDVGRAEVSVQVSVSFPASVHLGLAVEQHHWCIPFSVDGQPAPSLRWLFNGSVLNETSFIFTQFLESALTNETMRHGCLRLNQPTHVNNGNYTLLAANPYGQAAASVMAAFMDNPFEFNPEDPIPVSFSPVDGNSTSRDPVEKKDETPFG
T3 sequence (P04629 33-417 limits assumed): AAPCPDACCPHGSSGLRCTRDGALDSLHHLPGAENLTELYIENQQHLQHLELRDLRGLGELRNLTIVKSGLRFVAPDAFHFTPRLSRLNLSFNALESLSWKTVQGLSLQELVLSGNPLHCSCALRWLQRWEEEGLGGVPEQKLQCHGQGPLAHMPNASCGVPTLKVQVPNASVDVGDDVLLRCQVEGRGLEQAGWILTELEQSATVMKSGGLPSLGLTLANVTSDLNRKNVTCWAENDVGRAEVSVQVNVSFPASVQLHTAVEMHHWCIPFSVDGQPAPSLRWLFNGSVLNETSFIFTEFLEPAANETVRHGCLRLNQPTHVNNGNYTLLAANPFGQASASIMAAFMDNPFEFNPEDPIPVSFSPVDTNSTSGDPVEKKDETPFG
T2 sequence (Q16288 32-839): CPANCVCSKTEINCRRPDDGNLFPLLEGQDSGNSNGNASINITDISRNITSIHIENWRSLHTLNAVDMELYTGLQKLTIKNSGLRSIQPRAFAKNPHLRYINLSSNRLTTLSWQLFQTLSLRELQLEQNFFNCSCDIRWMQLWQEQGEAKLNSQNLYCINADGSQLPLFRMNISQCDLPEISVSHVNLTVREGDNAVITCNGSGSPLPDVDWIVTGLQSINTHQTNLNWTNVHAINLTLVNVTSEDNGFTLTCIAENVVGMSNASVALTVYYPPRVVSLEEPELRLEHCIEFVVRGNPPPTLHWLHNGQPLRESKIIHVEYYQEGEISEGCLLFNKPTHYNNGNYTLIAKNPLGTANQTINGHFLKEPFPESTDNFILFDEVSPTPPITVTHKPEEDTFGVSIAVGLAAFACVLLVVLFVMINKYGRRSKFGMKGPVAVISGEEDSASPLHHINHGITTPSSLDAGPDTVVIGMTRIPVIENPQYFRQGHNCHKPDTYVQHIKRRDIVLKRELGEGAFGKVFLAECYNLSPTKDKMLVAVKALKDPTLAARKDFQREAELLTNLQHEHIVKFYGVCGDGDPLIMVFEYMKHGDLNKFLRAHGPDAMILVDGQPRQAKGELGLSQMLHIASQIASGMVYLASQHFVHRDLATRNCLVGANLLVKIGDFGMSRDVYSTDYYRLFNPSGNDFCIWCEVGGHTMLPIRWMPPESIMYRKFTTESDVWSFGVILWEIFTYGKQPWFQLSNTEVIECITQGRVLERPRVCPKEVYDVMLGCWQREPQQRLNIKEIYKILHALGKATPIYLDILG
T1 sequence (Q16620 32-822): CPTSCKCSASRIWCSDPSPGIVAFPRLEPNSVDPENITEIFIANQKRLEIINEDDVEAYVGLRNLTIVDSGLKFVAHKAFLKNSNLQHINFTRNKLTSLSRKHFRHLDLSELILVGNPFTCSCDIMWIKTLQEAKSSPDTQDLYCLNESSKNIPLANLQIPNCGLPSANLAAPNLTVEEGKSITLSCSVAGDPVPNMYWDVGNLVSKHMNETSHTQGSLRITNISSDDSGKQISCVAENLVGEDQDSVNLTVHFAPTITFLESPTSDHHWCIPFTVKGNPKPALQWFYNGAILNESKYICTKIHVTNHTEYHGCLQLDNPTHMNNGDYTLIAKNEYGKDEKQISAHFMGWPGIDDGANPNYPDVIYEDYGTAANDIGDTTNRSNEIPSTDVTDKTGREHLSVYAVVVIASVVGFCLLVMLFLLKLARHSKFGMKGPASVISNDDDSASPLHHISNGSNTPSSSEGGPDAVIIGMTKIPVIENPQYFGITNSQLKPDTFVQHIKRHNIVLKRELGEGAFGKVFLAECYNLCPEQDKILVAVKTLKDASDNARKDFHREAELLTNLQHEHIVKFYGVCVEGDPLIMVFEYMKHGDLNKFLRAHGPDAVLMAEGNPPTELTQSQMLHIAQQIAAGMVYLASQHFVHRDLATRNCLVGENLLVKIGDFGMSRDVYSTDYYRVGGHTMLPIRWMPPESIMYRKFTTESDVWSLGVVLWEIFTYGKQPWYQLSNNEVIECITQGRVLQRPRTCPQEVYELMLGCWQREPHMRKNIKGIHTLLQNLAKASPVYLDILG

B1: humanized anti-TrkA antibody 42F5-15 (antibody, V domains shown)
VH: QVQLVQSGAEVKKPGASVKVSCKSSGYTFTNYWMHWVRQAPGQGLEWMGEIYPNNARVNYNEKFKNRVTMTVDISISTAYMELSRLRSDDTAVYYCARSRYDPMEDWGQGTTVTVSS
VL: DVQLTQSPSSLSASVGDRVTITCSASSSVGYMHWYQQKPGKAPKRLIYDTSKLASGVPSRFSGSGSGTDYTLTISSLQPEDFATYFCQQWSSIPLTFGQGTRLEIK
notes: 42F5-01 with NG55-56 of the VH mutated to NA55-56
For the molecule B1, the binding result in [1] and in experiment [2] was “no binding” throughout.

B2: anti-TrkA antibody 11G8 (antibody, V domains shown)
VH: QVQLQQPGAELVKPGASVKLSCKASGYTFTSYWMHWVKQRPGQGLEWIGEINPNNGLTNYDEKFKTKATLTIDKSSRTAYIQLSSLTSEDSAVYYCAKYGNYVAFAFWGQGTLVTVSA
VL: DIQMTQSPASLSATVGETVTITCRASENIYSYVAWYQQKQGKSPQLLVHNAKTLAEGVPSRFSGSGSGTQFSLKINGLHPEDFGSYYCQHHYGIPLTFGAGTKLELK
notes: Murine monoclonal antibody purified from hybridoma medium by protein G
As to B2, the values for the EC50 in [3] and in experiment [4] were 0.114 nM and 0.071 nM, respectively. For the same molecule, the binding result is “no binding (tested: 66.67 nM)” in experiment [5], “binds” in experiment [7], “no binding (tested: 66.67 nM)” in [8] and “binds” in experiment [13]. In [6], the “IC50 of inhibiting NGF-induced TrkA/Ba/F3 cell proliferation” value worked out at 1.65 nM. The IC50 (in general, the concentration needed to halve the response being measured) in experiment [9] worked out at 1.9 nM. Also, the Kd – broadly, the free concentration of one partner at which half of the binding sites on the other are occupied at equilibrium, for simple one-to-one binding – in experiment [10] was < 0.001 nM. The koff (commonly the first-order rate constant of dissociation) in experiment [10] was < 1e-07 s⁻¹. The kon (as a rule, the second-order rate constant of association) in [10] is 992000 M⁻¹ s⁻¹. In addition, the “IC50 of inhibiting NGF-induced TF-1 cell proliferation” value in experiment [11] was determined as 1.09 nM. Also, the “inhibition of NGF-induced TrkA/Ba/F3 cell proliferation at 2.5 µg/mL (16.67 nM) or higher” value (from here on “inhibition”) in experiment [12] was 100%.

B3: anti-TrkA antibody 5A3 (antibody, V domains shown)
VH: QVQLQQSGAELMKPGASVKISCKAIGYTFSRYWIEWVKQRPGHGLEWIGEILPGRGVTNYNENFKGKATFTVDISSTTTYIQFSSLTSEDSAVYYCARSNYGDYDFWGQGTSLTVSS
VL: QTVVTQESALTTSPGETVTLTCRSSSGAVTTSNHANWVQEKPDHLFTSLMGGTNNRAPGVPARFSGSLIGDKAALTITGAQTEDEAIYFCALWYSNHWVFGGGTKLTVL
notes: as for B2
Regarding B3, the EC50 (usually the concentration giving half of the maximal effect) in [3] was 0.242 nM; in experiment [4] it was 0.154 nM. Also, the binding result in experiment [5] is “no binding (tested: 66.67 nM)”; in experiment [7] it was “binds”; in experiment [8] it was “no binding (tested: 66.67 nM)”; in [13], “binds”. In addition, the “IC50 of inhibiting NGF-induced TrkA/Ba/F3 cell proliferation” value in [6] amounted to 0.422 nM. In addition, the IC50 in [9] came to 1.76 nM. In [10], the Kd came to 0.0155 nM. The molecule also showed a dissociation rate constant (koff) in experiment [10] of 1.88e-05 s⁻¹. Moreover, the kon in experiment [10] came to 1.21e+06 M⁻¹ s⁻¹. Besides, the “IC50 of inhibiting NGF-induced TF-1 cell proliferation” value in experiment [11] was determined as 6.49 nM. In addition, the “inhibition” value in experiment [12] came to 100%.

B4: anti-TrkA antibody 26E9 (antibody, V domains shown)
VH: QVQLQQPGAELVKPGASVKLSCKSSGYTFTNYWMHWVKQRPGQGLEWIGEIYPSNGRTNYNEKFKNRATLTVDISSSTAYMQLSSLTSEDSAVYYCARSRYDPMEDWGQGTSVTVSS
VL: QIVLTQSPAIMSASPGEKVTMTCSASSSVGYMHWYQQKSGTSPKRWIYDTSKLASGVPTRFSGSGSGTSYSLTISSMEAEDAATYYCQQWSSIPLTFGSGTKLEIK
notes: as for B2
Regarding B4, the EC50 stood at 0.099 nM in [3] and 0.068 nM in [4]. Further, the binding result in experiment [5] is on record as “no binding (tested: 66.67 nM)”; in experiment [7] it was “binds”; in experiment [8], “no binding (tested: 66.67 nM)”; in experiment [13], “binds”. Besides, the “IC50 of inhibiting NGF-induced TrkA/Ba/F3 cell proliferation” value in [6] was 1.54 nM. This molecule showed a 50% inhibitory concentration (IC50) in experiment [9] of 2.04 nM. The Kd in experiment [10] was found to be 0.0267 nM. In experiment [10], the koff was 2.46e-05 s⁻¹. The kon in experiment [10] is 923000 M⁻¹ s⁻¹. Also, the “IC50 of inhibiting NGF-induced TF-1 cell proliferation” value in experiment [11] was 1.39 nM. The “inhibition” value in experiment [12] was 100%.

B5: anti-TrkA antibody 42F5 (antibody, V domains shown)
VH: QVQLQQPGAELVKPGASVKLSCKSSGYTFTNYWMHWVRQRPGQGLEWIGEIYPNNGRVNYNEKFKNRATLTVDISSSTAYMQLSSLTSEDSAVYYCARSRYDPMEDWGQGTSVTVSS
VL: QVVLTQSPAIMSASPGEKVTMTCSASSSVGYMHWYQQKSGTSPKRWIYDTSKLASGVPTRFSGSGSGTSYSLTISSMEAEDAATYFCQQWSSIPLTFGSGTRLEIK
notes: as for B2
Regarding B5, the EC50 in experiment [3] was 0.128 nM; in experiment [4] it was 0.134 nM. Further, the binding result in experiment [5] was “no binding (tested: 66.67 nM)”; in experiment [7], “binds”; in experiment [8], “no binding (tested: 66.67 nM)”; in [13] it was “binds”. Besides, the “IC50 of inhibiting NGF-induced TrkA/Ba/F3 cell proliferation” value in experiment [6] turned out to be 1.25 nM. In experiment [9], this molecule came in with an IC50 of 2.35 nM. Further, binding in experiment [10] was put at a Kd of 0.00218 nM. The molecule also came in with a koff in [10] of 2.07e-06 s⁻¹. For the same molecule, in experiment [10], the kon was determined as 947000 M⁻¹ s⁻¹. Besides, the “IC50 of inhibiting NGF-induced TF-1 cell proliferation” value in [11] was 1.3 nM. Moreover, the “inhibition” value in [12] was 100%.
